Publication PMC6555819, “Comprehensive study of nuclear receptor DNA binding provides a revised framework for understanding receptor specificity”
Where a chain is given by its changes, count along the chain named.

B1: NRC3_wobSeed141_DR5_G21C_o1 (dsDNA)
DNA 1: GCAGTCAAAGTTCAGGACGACGTAACGTAAAGCACGGCGATTGACAGCGTAGAATGAAGG
DNA 2: CCTTCATTCTACGCTGTCAATCGCCGTGCTTTACGTTACGTCGTCCTGAACTTTGACTGC
B2: NRC3_wobSeed61_DR2_A17G_o1 (dsDNA)
DNA 1: GCCGTCCAAGGTCAGCGGGTCAGTGAAAGCGACGTGGCGATTGACAGCGTAGAATGAAGG
DNA 2: CCTTCATTCTACGCTGTCAATCGCCACGTCGCTTTCACTGACCCGCTGACCTTGGACGGC
B3: NRC3_wobSeed88_DR3_G24A_o1 (dsDNA)
DNA 1: GCTAGCCTAGGTCATGCGGGCCAATATAGTGTCGGCGCGATTGACAGCGTAGAATGAAGG
DNA 2: CCTTCATTCTACGCTGTCAATCGCGCCGACACTATATTGGCCCGCATGACCTAGGCTAGC
B4: NRC3_wobSeed134_DR5_G26T_o1 (dsDNA)
DNA 1: GCGCTGCTAGGTCAACTGATGGTCATCTAAAGCTCGGCGATTGACAGCGTAGAATGAAGG
DNA 2: CCTTCATTCTACGCTGTCAATCGCCGAGCTTTAGATGACCATCAGTTGACCTAGCAGCGC
B5: NRC3_wobSeed27_DR1_G10T_o1 (dsDNA)
DNA 1: GCACTCGGATGACAAAGGTCAGAGCTACGCCAGTGAGCGATTGACAGCGTAGAATGAAGG
DNA 2: CCTTCATTCTACGCTGTCAATCGCTCACTGGCGTAGCTCTGACCTTTGTCATCCGAGTGC
B6: NRC3_wobSeed27_DR1_A23G_o1 (dsDNA)
DNA 1: B5 DNA 1 with T10G, A23G
DNA 2: B5 DNA 2 with T38C, A51C
B7: NRC3_wobSeed18_DR0_A4T_o1 (dsDNA)
DNA 1: GCGTTACAGGGTCAAGGCCAGAGTACGCGTATTGATGCGATTGACAGCGTAGAATGAAGG
DNA 2: CCTTCATTCTACGCTGTCAATCGCATCAATACGCGTACTCTGGCCTTGACCCTGTAACGC
B8: NRC3_wobSeed99_DR4_C13A_o1 (dsDNA)
DNA 1: GCTCTCGGAGGAAACGAAAGGTCAGAGCTCGACATCGCGATTGACAGCGTAGAATGAAGG
DNA 2: CCTTCATTCTACGCTGTCAATCGCGATGTCGAGCTCTGACCTTTCGTTTCCTCCGAGAGC
B9: NRC3_wobSeed2_DR0_T5G_o1 (dsDNA)
DNA 1: GCCCGAGTTGGTCAAGGTCACACACGCTATAGGTACGCGATTGACAGCGTAGAATGAAGG
DNA 2: CCTTCATTCTACGCTGTCAATCGCGTACCTATAGCGTGTGTGACCTTGACCAACTCGGGC
B10: NRC3_wobSeed2_DR0_A24C_o1 (dsDNA)
DNA 1: B9 DNA 1 with G5T, A24C
DNA 2: B9 DNA 2 with T37G, C56A
B11: NRC3_wobSeed2_DR0_C23T_o1 (dsDNA)
DNA 1: B9 DNA 1 with G5T, C23T
DNA 2: B9 DNA 2 with G38A, C56A
B12: NRC3_wobSeed37_DR1_G10A_o1 (dsDNA)
DNA 1: GCCGTCCAAAGTCAAAGGTCAGTGAAGAGATGACGGGCGATTGACAGCGTAGAATGAAGG
DNA 2: CCTTCATTCTACGCTGTCAATCGCCCGTCATCTCTTCACTGACCTTTGACTTTGGACGGC
B13: NRC3_wobSeed75_DR3_G16A_o1 (dsDNA)
DNA 1: GCTCTCGGAGGACACAAAGGTCAGAGCTTTCCAGAGGCGATTGACAGCGTAGAATGAAGG
DNA 2: CCTTCATTCTACGCTGTCAATCGCCTCTGGAAAGCTCTGACCTTTGTGTCCTCCGAGAGC
B14: NRC3_wobSeed5_DR0_A25C_o1 (dsDNA)
DNA 1: GCCCTTACGGGTCAAGGTTATAGCCCGGGTGGTACGGCGATTGACAGCGTAGAATGAAGG
DNA 2: CCTTCATTCTACGCTGTCAATCGCCGTACCACCCGGGCTATAACCTTGACCCGTAAGGGC
B15: NRC3_wobSeed20_DR0_A17T_o1 (dsDNA)
DNA 1: GCAGAATGAGGTTAAGTTCAGGGAAACAGAATACATGCGATTGACAGCGTAGAATGAAGG
DNA 2: CCTTCATTCTACGCTGTCAATCGCATGTATTCTGTTTCCCTGAACTTAACCTCATTCTGC
B16: NRC3_wobSeed34_DR1_T23C_o1 (dsDNA)
DNA 1: GCATCGAAAGGTCGAAGGTGAGCATACCCACCCGAAGCGATTGACAGCGTAGAATGAAGG
DNA 2: CCTTCATTCTACGCTGTCAATCGCTTCGGGTGGGTATGCTCACCTTCGACCTTTCGATGC
B17: NRC3_wobSeed124_DR5_T26A_o1 (dsDNA)
DNA 1: GCCCTACTGGGCCATTCAGAGGTCAATGATCATATGGCGATTGACAGCGTAGAATGAAGG
DNA 2: CCTTCATTCTACGCTGTCAATCGCCATATGATCATTGACCTCTGAATGGCCCAGTAGGGC
B18: NRC3_wobSeed124_DR5_A14G_o1 (dsDNA)
DNA 1: B17 DNA 1 with A14G, A26T
DNA 2: B17 DNA 2 with T35A, T47C
B19: NRC3_wobSeed53_DR2_A22G_o1 (dsDNA)
DNA 1: GCCCTTACGGGTCACGAGGTTGTAGCACGACGAGCGGCGATTGACAGCGTAGAATGAAGG
DNA 2: CCTTCATTCTACGCTGTCAATCGCCGCTCGTCGTGCTACAACCTCGTGACCCGTAAGGGC
B20: NRC3_wobSeed40_DR1_A24G_o1 (dsDNA)
DNA 1: GCTAGCCTAGGTCATGGGCCAGTGTACCACGCGAACGCGATTGACAGCGTAGAATGAAGG
DNA 2: CCTTCATTCTACGCTGTCAATCGCGTTCGCGTGGTACACTGGCCCATGACCTAGGCTAGC
B21: NRC3_wobSeed40_DR1_A4C_o1 (dsDNA)
DNA 1: B20 DNA 1 with A4C, G24A
DNA 2: B20 DNA 2 with C37T, T57G
B22: NRC3_wobSeed82_DR3_G17C_o1 (dsDNA)
DNA 1: GCATCGAAAGGTCGACCAGGTGAGTATACACCGTTTGCGATTGACAGCGTAGAATGAAGG
DNA 2: CCTTCATTCTACGCTGTCAATCGCAAACGGTGTATACTCACCTGGTCGACCTTTCGATGC
B23: NRC3_wobSeed74_DR3_C26A_o1 (dsDNA)
DNA 1: GCTCTAGTTGGTCACGGAGGTCACAAACGACGGGTAGCGATTGACAGCGTAGAATGAAGG
DNA 2: CCTTCATTCTACGCTGTCAATCGCTACCCGTCGTTTGTGACCTCCGTGACCAACTAGAGC
B24: NRC3_wobSeed135_DR5_G26A_o1 (dsDNA)
DNA 1: GCCGAACTAGGTCATTGACAGGACAATGAATAGTAAGCGATTGACAGCGTAGAATGAAGG
DNA 2: CCTTCATTCTACGCTGTCAATCGCTTACTATTCATTGTCCTGTCAATGACCTAGTTCGGC
B25: NRC3_wobSeed65_DR2_G11T_o1 (dsDNA)
DNA 1: GCATATGTAGTTTATCGGGTCATTCAGTTTGCGCATGCGATTGACAGCGTAGAATGAAGG
DNA 2: CCTTCATTCTACGCTGTCAATCGCATGCGCAAACTGAATGACCCGATAAACTACATATGC
B26: NRC3_wobSeed58_DR2_G21A_o1 (dsDNA)
DNA 1: GCATCGAAAGGTCGTGAGGTAAGTATACAGAAAGGCGCGATTGACAGCGTAGAATGAAGG
DNA 2: CCTTCATTCTACGCTGTCAATCGCGCCTTTCTGTATACTTACCTCACGACCTTTCGATGC
B27: NRC3_wobSeed64_DR2_A4T_o1 (dsDNA)
DNA 1: GCTTGCCTAGGTCATTGGGCCAGTATAGTACGCATCGCGATTGACAGCGTAGAATGAAGG
DNA 2: CCTTCATTCTACGCTGTCAATCGCGATGCGTACTATACTGGCCCAATGACCTAGGCAAGC
B28: NRC3_wobSeed128_DR5_G27T_o1 (dsDNA)
DNA 1: GCTCTTGTAGATCAACAGGAGGTTAATAAAGATCGAGCGATTGACAGCGTAGAATGAAGG
DNA 2: CCTTCATTCTACGCTGTCAATCGCTCGATCTTTATTAACCTCCTGTTGATCTACAAGAGC
B29: NRC3_wobSeed87_DR3_A21T_o1 (dsDNA)
DNA 1: GCCGAACTAGGTCATCCAGGTCAGTGAATACATTGAGCGATTGACAGCGTAGAATGAAGG
DNA 2: CCTTCATTCTACGCTGTCAATCGCTCAATGTATTCACTGACCTGGATGACCTAGTTCGGC
B30: NRC3_wobSeed4_DR0_G11T_o1 (dsDNA)
DNA 1: GCCCTACTGGTCCAAGGTCATTGATCAGTCAAAGCAGCGATTGACAGCGTAGAATGAAGG
DNA 2: CCTTCATTCTACGCTGTCAATCGCTGCTTTGACTGATCAATGACCTTGGACCAGTAGGGC
B31: NRC3_wobSeed4_DR0_G11A_o1 (dsDNA)
DNA 1: B30 DNA 1 with T11A
DNA 2: B30 DNA 2 with A50T
B32: NRC3_wobSeed123_DR5_G26T_o1 (dsDNA)
DNA 1: GCCCTCGGAGGACAACAGGAGGTCATAGCTGCCAGAGCGATTGACAGCGTAGAATGAAGG
DNA 2: CCTTCATTCTACGCTGTCAATCGCTCTGGCAGCTATGACCTCCTGTTGTCCTCCGAGGGC
B33: NRC3_wobSeed136_DR5_T27C_o1 (dsDNA)
DNA 1: GCTAGCCTAGGTCATTCAGGGGCCAGCATAGAAAGCGCGATTGACAGCGTAGAATGAAGG
DNA 2: CCTTCATTCTACGCTGTCAATCGCGCTTTCTATGCTGGCCCCTGAATGACCTAGGCTAGC

Target: LXRa:RXRa (Homo sapiens, UniProt Q13133;P19793 full;full)
Test: no ligand; PBM; 270 nM : 90 nM RXRa; PBS pH 7.4, 2% milk, 0.02% Triton X-100, 1 mM DTT, BSA, 0.4 mg/ml salmon testes DNA
Conditions: tags: His kept;His cleaved; copies: 1;1; label: surface-attached array probe
Summary of the method: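 Scanned fluorescence from custom Agilent 4×180K protein-binding microarrays was regression-normalized. Binding z-scores use random background probes as reference. Ligand-free nuclear receptor dimers were incubated on the arrays for 1 h and detected with antibodies against each partner (one per run).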

LXRa:RXRa, sequence (Q13133 whole entry, chain 1 of 2): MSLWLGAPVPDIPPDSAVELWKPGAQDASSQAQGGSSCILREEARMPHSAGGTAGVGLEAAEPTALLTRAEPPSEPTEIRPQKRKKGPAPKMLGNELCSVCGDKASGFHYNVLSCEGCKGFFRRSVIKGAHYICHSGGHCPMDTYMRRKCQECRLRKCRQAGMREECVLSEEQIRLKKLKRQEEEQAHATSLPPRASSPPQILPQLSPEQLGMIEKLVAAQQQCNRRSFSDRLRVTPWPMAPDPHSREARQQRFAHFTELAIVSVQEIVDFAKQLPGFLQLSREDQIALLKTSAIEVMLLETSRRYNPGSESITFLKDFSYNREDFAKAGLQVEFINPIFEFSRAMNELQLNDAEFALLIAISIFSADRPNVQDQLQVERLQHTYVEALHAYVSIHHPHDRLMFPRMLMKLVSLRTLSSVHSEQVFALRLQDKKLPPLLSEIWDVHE
LXRa:RXRa, sequence (P19793 whole entry, chain 2 of 2): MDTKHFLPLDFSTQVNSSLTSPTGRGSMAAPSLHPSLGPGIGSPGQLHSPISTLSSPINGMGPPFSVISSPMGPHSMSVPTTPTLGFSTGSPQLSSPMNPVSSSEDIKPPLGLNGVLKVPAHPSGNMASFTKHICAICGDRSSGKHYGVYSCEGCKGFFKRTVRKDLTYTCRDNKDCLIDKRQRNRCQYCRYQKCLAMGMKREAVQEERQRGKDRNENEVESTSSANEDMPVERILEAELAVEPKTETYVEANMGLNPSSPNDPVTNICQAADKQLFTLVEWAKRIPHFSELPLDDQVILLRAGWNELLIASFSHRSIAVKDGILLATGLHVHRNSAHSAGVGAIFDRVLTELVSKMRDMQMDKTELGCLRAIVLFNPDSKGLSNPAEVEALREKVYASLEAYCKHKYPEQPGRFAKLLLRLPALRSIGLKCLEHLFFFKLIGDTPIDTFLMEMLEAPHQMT

Row | Binder | binding signal
1 | B1 | 3.38 PBM z-score against 500 random probes
2 | B2 | 3.86 PBM z-score against 500 random probes
3 | B3 | 3.29 PBM z-score against 500 random probes
4 | B4 | 3.56 PBM z-score against 500 random probes
5 | B5 | 4.09 PBM z-score against 500 random probes
6 | B6 | 4.04 PBM z-score against 500 random probes
7 | B7 | 4.02 PBM z-score against 500 random probes
8 | B8 | 3.75 PBM z-score against 500 random probes
9 | B9 | 3.9 PBM z-score against 500 random probes
10 | B10 | 3.48 PBM z-score against 500 random probes
11 | B11 | 3.72 PBM z-score against 500 random probes
12 | B12 | 3.96 PBM z-score against 500 random probes
13 | B13 | 3.54 PBM z-score against 500 random probes
14 | B14 | 3.64 PBM z-score against 500 random probes
15 | B15 | 3.43 PBM z-score against 500 random probes
16 | B16 | 3.46 PBM z-score against 500 random probes
17 | B17 | 3.77 PBM z-score against 500 random probes

Row | Binder | binding signal
18 | B18 | 3.51 PBM z-score against 500 random probes
19 | B19 | 4.14 PBM z-score against 500 random probes
20 | B20 | 3.31 PBM z-score against 500 random probes
21 | B21 | 3.18 PBM z-score against 500 random probes
22 | B22 | 3.67 PBM z-score against 500 random probes
23 | B23 | 3.23 PBM z-score against 500 random probes
24 | B24 | 3.59 PBM z-score against 500 random probes
25 | B25 | 3.34 PBM z-score against 500 random probes
26 | B26 | 4.07 PBM z-score against 500 random probes
27 | B27 | 3.21 PBM z-score against 500 random probes
28 | B28 | 3.26 PBM z-score against 500 random probes
29 | B29 | 3.37 PBM z-score against 500 random probes
30 | B30 | 3.7 PBM z-score against 500 random probes
31 | B31 | 3.62 PBM z-score against 500 random probes
32 | B32 | 3.93 PBM z-score against 500 random probes
33 | B33 | 3.99 PBM z-score against 500 random probes
